The RNAGym collection of RNA variant scans (doi:10.7554/elife.90254)

B1: LINE1-full (parent)
chain: UACGUAGGUGGUUUUCCCCUGAUAGUGCUAAGGGGGCCUGGAAGUUUGGACUGGGCAGAGCUCAACACAGCGUGGCAAAGUGGCUGUGGCUAGACUGCCUCUCUGGAUUCCUCGUCACUCAGCAGGGCAUCUCUGAGAGAAAUGCC

Variants of: B1
Assay: self-cleavage, relative activity (ratio to wild type); higher = more cleavage; in vitro, sequencing; the parent is a self-cleaving ribozyme

Variant | self-cleavage
U62A C128U | 0.03
A57G G137A | 0.99
A59G G75A | 0.04
A57U A59U | 0.07
A57U U104C | 0.15
A57G C98G | 0.07
A57G C68A | 0.06
G58U | 0.05
G58C | 0.03
G58A | 0.05
U62A A92U | 0.03
U62A A92G | 0.07
U62A A117G | 0.08
U62A A117C | 0.05
A57G U96C | 1.37
A57G U96A | 0.05
U62A A65C | 0.07
G58U A65U | 0.04
C61A U81C | 0.04
U62A A121U | 0.06
G60A C99A | 0.05
G60C U102C | 0.06
G58U G137U | 0.03
U62A A78G | 0.05

Variant | self-cleavage
U62A G83A | 0.05
G60A A92G | 0.03
G58A U87C | 0
A59U U119C | 0.6
U62A A136G | 0.03
U62A A136U | 0.14
C61A A79G | 0.02
C61A U104C | 0.04
U62A A124G | 0.02
G60A U81A | 0.02
G60A U81C | 0.03
G60U | 0.01
G60C | 0.05
G60A | 0.02
G58U G80A | 0
G60A A79G | 0.05
G58A U102C | 0.04
A59G A141G | 0.08
A59G A141U | 0.2
A57U U112C | 0.01
A59G A142G | 0.07
G60A U104C | 0.07
C61G A67U | 0.04
G60A U91C | 0

Variant | self-cleavage
A59U C95U | 0.19
G60A A78U | 0.02
G60A A78G | 0.04
G60A A140U | 0.03
G58A A107G | 0.04
G60A A136G | 0.02
A59G A129G | 0.07
A59G G89A | 0.01
A59G G89U | 0.02
C61A | 0.04
C61G | 0.06
C61U | 0.04
C61U A140G | 0.03
A59U A69U | 0.04
U62A G86A | 0.05
G58A A117U | 0.05
G58A A117C | 0.1
A57U A92G | 0.07
A57U A92U | 0.07
U62A A69G | 0.02
U62A A69U | 0.05
A57G U119A | 0.85
A57G C61U | 0.05
G58U A129G | 0.05

Variant | self-cleavage
A59G A92G | 0.04
A57U U132C | 0.14
A59U U62G | 0.04
A59U U62A | 0.05
A59U U62C | 0.06
G60U U85C | 0.03
G60A A129U | 0.02
U62A C99A | 0.03
G60A A67G | 0.08
G60A A69G | 0.05
G60A A69U | 0.03
G58U A141G | 0.04
U62A U73C | 0.02
A59G U132A | 0.06
A57U C71U | 0.02
A57U G114A | 0.07
G60U A79G | 0.05
A59C U108C | 1.28
C61U U100A | 0.01
A59G G86A | 0.07
A59G G86U | 0.03
A57U C128U | 0.11
C61U U112G | 0.04
A59G A136G | 0.07

Variant | self-cleavage
A59G C71A | 0.06
A59U A142G | 1.08
A59U A142C | 1.03
U62A A141G | 0.05
C61G C145U | 0.03
A59G A117U | 0.08
A57U A67C | 0.07
A57U A67G | 0.12
G60A G72A | 0.01
G58A A79G | 0.06
A59G G126A | 0.12
A59U G127A | 0.65
C61U G114U | 0.01
C61U A65C | 0.03
A57U U134C | 0.12
A57U U134G | 0.02
G58A A138G | 0.04
A57U G144U | 0.3
A59U C103U | 0.5
G60A U62C | 0.04
G60A A64G | 0.04
A57G U112A | 0.99
A59G U81C | 0.09
A59G U81A | 0.1

Variant | self-cleavage
A57G G114A | 0.84
A59C A77U | 0.6
U62A G93U | 0.03
A59U U143A | 0.75
A57U U96C | 0.06
A57U U96A | 0.52
A57U U96G | 0.22
U62A G82A | 0.03
C61U A64U | 0.06
C61U A107G | 0.03
A57G G82A | 1.75
A57G G82C | 1.36
U62A G72A | 0.01
U62A G72C | 0.03
A57U U81A | 0.05
A57U U81C | 0.12
A57U G135U | 0.08
A59G U96A | 0.07
U62A U85C | 0.08
U62A U85A | 0.02
A59G A140G | 0.09
A59G A140U | 0.09
A59G A124U | 0.14
A59U G114A | 0.54

Variant | self-cleavage
A59G C76A | 0.08
A59G U143A | 0.08
A57U U87C | 0.04
A57U U87A | 0.05
C61U U73A | 0.02
C61U U73G | 0.16
A59U U104A | 0.81
G58A A136G | 0.05
C61U G106A | 0.02
A59G C116A | 0.04
A59G C116U | 0.07
U62A A129G | 0.06
G60C U109C | 0.1
A57U A79U | 0.1
A57U A79G | 0.06
A57U U109C | 0.03
A59G A138U | 0.12
A59U A117U | 0.8
A57U A129U | 0.11
U62A C84U | 0.04
A59G G93U | 0.03
A57G G86A | 0.05
A59G A121G | 0.23
A59G A121C | 0.09

Variant | self-cleavage
A59G A121U | 0.08
A57U A94G | 0.14
A57U A94U | 0.04
A59G A67G | 0.08
A57G G74A | 0.46
A59G C146U | 0.12
A59G A69G | 0.1
G58A A129U | 0.06
G58A A129G | 0.03
A57U U130C | 0.13
A57U U130A | 0.15
C61A A129U | 0.03
A59U C63A | 0.02
A59G A94U | 0.07
A59G A94G | 0.23
G58U U130C | 0.05
A57U A64G | 0.1
A59G A107U | 0.04
A57G G106U | 0.58
A57U U91A | 0.07
A57U U91C | 0.04
A59G U134A | 0.08
A59G C61G | 0
A57G G89A | 0.04

Variant | self-cleavage
A59U C71U | 0.64
A59U G75A | 0.51
G58A A59G | 0
G60U U62C | 0.08
U62A A138G | 0.06
U62A A138U | 0.06
G60A A65U | 0.05
A59U A64G | 0.09
A57U G126U | 0.1
A59U U132C | 0.71
A57G C116U | 0.71
G58A U130C | 0.05
A57G U102C | 0.43
C61G A77G | 0.07
A59U U134C | 0.92
G58A C145U | 0.04
A57U A78G | 0.03
A57U A65U | 0.06
G60A A141G | 0.02
A59G C95U | 0.14
U62A C120U | 0.02
U62A U81C | 0.04
U62A U81A | 0.05
A57U G60C | 0.05

Variant | self-cleavage
A57U G60A | 0.04
A59U A65G | 0.03
A57G C71G | 0.07
A57G U100C | 1.99
G58A C110U | 0.05
A57G U73C | 1.17
A57G U73G | 0.69
A59G A79G | 0.07
A59G A77G | 0.15
C61U A79G | 0.01
A57U U115A | 0.09
A59G C63U | 0.05
A57G U104A | 0.3
G58U A117G | 0.01
A57G G60A | 0.06
A59U U112C | 1.51
A59U U112A | 0.83
A59G U112A | 0.09
A59G U112C | 0.13
G60A U143A | 0.05
U62A C66U | 0.01
A57U U100A | 0.03
G60U A121G | 0
C61G A129C | 0.03

Variant | self-cleavage
U62A A79U | 0.03
A57G G127A | 0.94
A57G G126U | 0.65
A59U A140G | 0.89
A59G U104A | 0.14
C61A A140G | 0.05
C61U U81A | 0.02
A59G C133A | 0.04
A59G C133U | 0.08
A57G G125A | 0.52
A57G G125U | 0.92
G58A U143C | 0
G60A A117G | 0.11
A59G G82A | 0.02
A59U U96C | 0.24
A59C U115C | 1.55
A59U U87C | 0.22
A59G U73C | 0.07
C61U U62G | 0.01
G60A A124U | 0.02
G60C U134A | 0.07
A57G U108C | 1.48
A57U G139U | 0.11
A59G G127A | 0.07

Variant | self-cleavage
G60A A142G | 0.04
A59G A78G | 0.06
A57G U87A | 0.08
A59G G144A | 0.12
C61U U87C | 0.03
A57U C145U | 0.08
G58U A59G | 0.06
G58A U132C | 0.05
A59U A79G | 0.83
A59C C131A | 1.15
A57U U102C | 0.13
G58A U115A | 0.1
G58A U115C | 0.06
A59U U115A | 0.8
G60A U132C | 0.03
A57U A138G | 0.15
A57U A136G | 0.11
A59U U81A | 1.53
A59U U81C | 0.87
A59G G114C | 0.03
A59U A141G | 0.96
A59U A141U | 1.03
U62A C110U | 0.08
A59G G70C | 0.04

Variant | self-cleavage
A59U C99U | 0.46
A59G U109C | 0.17
A57G U143A | 0.84
A57G U143C | 0.81
A59U A136G | 1.1
A59G C118U | 0.02
U62A C103A | 0.04
U62A A142G | 0.02
A59U A129C | 1.15
A59U A129U | 0.51
A59U A129G | 0.86
G60U U91C | 0.01
C61U A141G | 0.05
A59G A65G | 0.11
A57U A77G | 0.17
C61A U130A | 0.06
U62A G144A | 0.05
A59G U91A | 0.09
A59G U91C | 0.11
A57G U132A | 1.29
A57G U132C | 0.86
A57G U132G | 0.62
A59G C110U | 0.1
G58U G114A | 0.03

Variant | self-cleavage
G58U U115C | 0.04
G60U A117G | 0.04
A57U U143A | 0.11
G60U U100A | 0.02
C61U G82A | 0.02
G58A U96C | 0.04
A59C U130C | 0.8
A57U G75A | 0.03
A59U A67U | 0.1
G60C U115C | 0.02
A59C U87A | 0.04
G58A U81G | 0.12
G60A U85C | 0.01
A59U A138G | 0.83
A59U A138C | 1.23
A59U A138U | 0.88
A59U U130A | 0.74
A57G C128G | 0.55
C61U A77U | 0.03
A57U G83U | 0.02
A59U U73C | 1.27
A57G C120A | 0.93
